Test results reported in article PMC9907810.

Molecular target: SARS-CoV-2 S-2P (engineered Spike ectodomain trimer with two stabilizing proline mutations) (SARS-CoV-2)
Assay: […] (200 mM NaCl, 20 mM Tris-HCl pH 7.5), 4 °C; […]

Q: “SARS-CoV-2 S-2P (engineered Spike ectodomain trimer with two stabilizing proline mutations) (natural protein)” was tested. Which stoichiometry N did it give?
A: The stoichiometry N was 3.
